Series [1] relates to hemoglobin. The series is described as follows: 2DPC hydrogel aptasensor (Debye ring). As to conditions: DNA-H1-960, 500 uM protein; same limit as blank; 5'-NH2-(CH2)6 and 3'-(CH2)6-NH2; amide-linked to hydrogel carboxyl groups; 10 mM phosphate-buffered saline, pH 7.40 (one test at pH 5.00), 1 h immersion; temperature of the binding assay not stated.
Series [2] relates to trypsin. The experiment in a line: 2DPC hydrogel aptasensor (Debye ring). Particulars: DNA-H1-960, 500 uM protein; same limit as blank; 5'-NH2-(CH2)6 and 3'-(CH2)6-NH2; amide-linked to hydrogel carboxyl groups; 10 mM phosphate-buffered saline, pH 7.40 (one test at pH 5.00), 1 h immersion; temperature of the binding assay not stated.

As for “ATCTACGAATTCATCAGGGCTAAAGAGTGCAGAGTTACTTAG [lysozyme-binding aptamer]”, the binding signal (nm particle spacing decrease) in series [1] and in series [2] was below 12.7 throughout.

The values above are taken from article PMC9406194.
